According to patent publication US10011641B2:
Non-standard residues stand in square brackets, D forms with d. No end group written: not given here. Z06677 = not defined here

Key:
[1] = biological target: PEP06548 (Artificial sequence); assay: affinity purification on anti-ABD agarose with about 2.3 mg ligand per ml resin, absorbance measurement
[2] = biological target: PEP17081 (Artificial sequence); assay: affinity purification on anti-ABD agarose, spectrophotometric analysis of the eluted pool

Q: How did the purified protein obtained per ml of resin (mg per ml of resin) [1] turn out when GSSLQ[Z06677][Z06677]VDC (designed binder, reading uncertain; also: printed as GSSLQ-[Z06677][Z06677]-VDC) [(Z06677)2-Cys] was run?
A: 3.7

Q: And the sample molecules per ligand ([1]; scale: PEP06548 molecule per)?
A: 1

Q: And the binding capacity (mg PEP17081 per ml resin) [2]?
A: 13
